Patent US12611470B2, “Chromatin-opening element for stable long term gene expression” (CZ Biohub SF, LLC, priority 2019, dated 2026)

Tested on: P19 cells
Assay: Lentiviral transduction silencing experiment, UCOE linked to CMV, EF1α, RSV or PGK promoter driving GFP
Assay type: cell-based, mouse
Description: The graphs show the raw data of measured percent GFP positive cells (% GFP+) for each construct over time. Transduced populations were sorted into triplicate wells using FACS at day 0 (5 days after lentiviral transductions) to begin the study at 100% GFP positive cells. Expression is lost quickly within the first 10 days, and then stabilizes around day 15. Data is reported as mean±SD from biological triplicates. Two positive UCOE controls (A2UCOE, 3′UCOE) and a negative control (no insulator region) were used.
Percent GFP positive cells at the final timepoint (day 26 for CMV and RSV, day 27 for PGK and EF1α) of the lentivirus silencing experiment across the four tested promoters is plotted. P19 cells were FACS-sorted five days after transduction (day 0) and then assayed over a 26 or 27-day time period thereafter. Data is reported as mean±SD from three biological replicates.
Two plasmids (pCS3800: encoding HIV-1 Gag; pCS380: encoding VSVg envelope protein) were used with varying versions of the donor plasmid pCS3799. HEK293T cells were plated at 5×10^6 cells in a 10 cm dish. Twenty-four hours after plating, the three plasmids (10 μg donor, 8 μg pCS3800, 10 μg pCS3801) were co-transfected together using a calcium phosphate protocol (Zufferey, R. T. and Trono, D. (2001) Current Protocols in Human Genetics, 26 (1), 12.10.1-12.10.12; DOI: 10.1002/0471142905.hg1210s26 (55)). The total DNA was brought to 500 μL in water, to which 500 μL of 2×HEPES-buffered saline, pH7.0 (Alfa Aesar) was added and mixed. One-tenth of the total volume (100 μL) of 2.5 M calcium chloride (Sigma-Aldrich) was then added to the mixture, followed by a 20-minute incubation. The mixture was then added to the plate in a dropwise manner. Media was replaced six hours later, and the supernatant was collected at 48 hr after the transfection, filtered through 0.4 μm filter, and frozen at −80° C. in 1 mL aliquots. Lentiviral aliquots were thawed in a 37° C. bead bath before transductions.
P19 cells were plated at 20-30,000 cells/well in 12-well plates one day before transduction. Twenty-four hours after plating, cells were transduced at varying dilutions of the lentiviral stock (ranging from 1:2 to 1:100) in DMEM+10% FBS with 8 μg/mL polybrene (Santa Cruz Biotechnologies). Media was refreshed on P19 cells 24 hours after transduction, and cells were passaged and assayed through a MACSQuant® VYB flow cytometer (Miltenyi Biotec) 48 h after transduction. MOI was determined by reporter expression at this timepoint using the following formula: MOI=ln (1/1-p) where p is the % of cells that are GFP positive at 48 hours post-transduction (Chen, S. et al. (2015) Cell, 160, 1246-1260 (56)).
Cells were FACS-sorted on the BD Influx™ cell sorter at the Stanford FACS Facility using the 488-nm laser and 525/40 filter to assay GFP expression. After gating for singlets and viability, GFP+ gate was drawn to be <0.1% GFP positive in non-transduced P19 cells. GFP+ gates were re-drawn for each promoter set to avoid the ˜10% highest and lowest expressing cells within the GFP+ gate, but the same gate was used for every experimental condition under the same promoter. Triplicate wells of each population (12-15,000 cells/well in a 24-well plate) were collected.
Fluorescence data throughout silencing experiments was obtained using a MACSQuant® VYB flow cytometer (Miltenyi Biotec). EGFP was measured through the 488-nm laser and 525/50 nm band pass filter. Flow cytometry data was analyzed using the FlowJo™ single cell flow cytometry analysis software (Tree Star). After being gated for singlets and viability, GFP+ gates in FlowJo were drawn such that a non-transfected or non-transduced P19 cell population was at 1% GFP+. Median values reported are of cells within the GFP+ gate, both % GFP positive and median are reported with the standard deviation of biological replicates. […]

B1: Candidate 6: Full length SRF-UCOE, SEQ ID NO:1; region between human SURF1 and SURF2 including first introns, chr9 (nucleic acid, listed as Homo sapiens)
DNA: GCACACGACCACAATTCCACTGAAAGCATTTTAATACGGAACTTGTCACTCCCAGGGAGCCTCCGCTCAGCCGGCAGTTGGTTCATTTCAATCCCCACGACAACCCTTCAAAGTGCAGGGCAGACAGCAGGTGGCTCTGCCCAGGCGCCTGGATCACAGCCCGGCCTGCAGCCCTCACCTGGGCGCGGGGAGACCCTGAGGACGCTCCTCCAGGCGGCGCTGGCCGGGGCCTGCGGACACGGACGGGCGGGCTGAGCTCCGGGACCCCTCCCCGCGCCCCGCACCCCGCACCCCGCACCCCGCACCCCGCACCCGGCGCTCACCCGTCCCAGCCCCGCCGCCCGCAGCCCCAGCTGCAACGCAGCCACCGCCGCCATCGCACCCGGCCCCGCGGGCGCTTCCGGGACGCAGGAGGCATCTGCATCCGGGGCGCCGCTGAGTCCCGCCCAGAGCCCCGCCCCCGGCTCCAGGTTCTGCGAGCGGCTTCCGCCGGGCTGCTCCGCGGGCGCGTCGGCCATGAGCGAGTTGCCGGGCGACGTGCGGGCGTTTCTGCGGGAGCACCCGAGCCTGCGGCTCCAGACGGACGCCCGCAAGGTTCGCAGCGCGGGAGGGGAACGGAGTGGCGGAGAAGGGCGCAGTTGGGATGAGGGGCTGAGGGGAGGGCAGGGGAGAGGAGAGGGCAGGGGAGAGGGGAGAGGGGAGAGCAGGAGAGAGGGGAAGGCAGGGGAGAGGGCGCGGCGGGATCAGGGGAGGAGAGGGAAGGGGGCGCGGCAGGAGGGGGCACCAGGGAGCGGAGCCCTGGCCCTCCTGACGTCCTGCCCGCCCACGCGTCCGCAGGTGAGGTGCATCCTGACAGGTCACGAGCTGCCCTGCCGCCTGCCGGAGCTCCAGGTCTACACCCGCGGCAAAAAGTACCAGCGGCTGGTCCGCGCCTCCCCGGCCTTCGACTATGCAGAGTTCGAGCCGCACATCGTGCCCAGCACCAAGAACCCGTAGGTGGTC
With B1 the “GFP positive cells / expression compared to the negative control” value (Ef1α promoter, final timepoint) was 2.7 times, the “% GFP+ cells at final timepoint” value (PGK promoter, day 27) was 29% and the “expressing cells / improvement over the negative control” value (PGK promoter, day 27) was 5 fold. The “% GFP+ cells at final timepoint” value (RSV promoter, day 26) was 76% and the “% GFP+ cells, representative example (one biological replicate)” value (RSV promoter, day 26) was 79.6%.
